Measurements from patent US20240026407A1, “MODIFICATION OF SAPONINS” (GLAXOSMITHKLINE BIOLOGICALS SA, priority 2020, published 2024).

Legend:
Type in all cases: biochemical, Quillaja saponaria
[1] = Experiment 5-1: screening of additional glucosidases for deglycosylation with purified QS-18 (0.04 mg/ml) at pH 7.5 and 30 deg C; conditions: pH 7.5, 30 degrees C, 18 hours, LCMS/MS
Description: The 94 additional genes, together with positive control (DNA encoding SEQ ID No. 262) and negative control, were transformed, expressed, lysed and reacted in the same manner as described above for Experiment 4-1, except the reaction was incubated at 30 degrees C. for 18 hours.
Samples were analysed by LCMS/MS according to the procedure in Experiment 4-1.

[2] = Experiment 5-2: screening of additional glucosidases for deglycosylation with QS-18 in crude bark extract (80%) at pH 6 and 35 deg C; conditions: CBE 80%, pH 6, 35 deg C, 18 hours; UV HPLC
Outline: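 Clarified glucosidase lysate (prepared at pH 6) was incubated with pH 6-adjusted crude bark extract at 35 deg C with shaking for 18 hours. Reactions were quenched with MeCN containing 2% AcOH and hexanophenone, then analysed by UV HPLC.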

[3] = Experiment 5-3: screening of additional glucosidases for deglycosylation with QS-18 in treated bark extract (80%) at pH 6 and 35 deg C; conditions: TBE 80% (QS-21 approx. 4 g/L), pH 6, 35 deg C; UV HPLC
Description: Experiment 5-1 was repeated, replacing CBE with Treated Bark Extract (TBE) at pH 6. TBE was prepared from CBE by PVPP treatment and concentration, to provide TBE with a QS-21 concentration of approximately 4 g/L. TBE was adjusted to pH 6 by dropwise addition of 2M NaOH with stirring.

Molecule	Experiment 5-1 % conv [1] [%]	Experiment 5-2 % conv [2] [%]	Experiment 5-3 % conv [3] [%]
890 (protein, listed as Arthrobacter ulcerisalmonis) MNLPLSPAVTAPAAGSPDAEALIHNLADSLSLAEQVQLLTGADVWSTHTLPSIGLSRIVLSDGPAGVRGEDFDERHDSVSLPSSSALSASWSAELAHRYGQVLGQEARRKGVHAVLGPTINLHRSPLGGRHFECMSEDPRLTATMAAGYVAGVQSMGVGATPKHYLANESETDRFTVDSVVAERPLRELYLAAFEDAITESRAWLVMSSYNSINGTTASENDLLETPLSTEWGFDGVVVSDWTGVRSVEAANAHQDLEMPGPVGHWSAKLLAAVESGQVSREAIVEKVVRILRLAARVGSLDGVSPAVAELPAALDSAAVAREVAIRGAVLIRNSAGLLPLDASALTSVALSGHNADEARTQGGGSATVMPKQNISPLMGLREALPATTSLSYTRGAKVAEGLQQFARTALHNPVSNVPGARVTFLDASGTEIFAEDRLASSLIWFGVGIPEGTAAITISTDWTAEQAGVHHLGLGTVGQARLSFNGTEVFNGELLDTTNVLGAALFDPPSTVHQIETTAGETVRIEAHYTLPPEQFIPLTAILLGEEAVVTDPQAEIDDAVAAASSADVAIVVVGTNSSIESEGFDRSNLDLPGHQNELVRAVAAANPRTIVVVNSGSPVLMPWLEDVGAVLLGWFGGQEFGRAIADILLGVAEPGGRLPTSWPAALADVPVLSTTPVEGKLEYAEGIHVGYRAWLQQQAAGGPAPAVPFGFGLGYTSFEFSAPHAPQQVQAGNDVIVHVPVRNTGSRAGREVVQVYLERPDSTVERPVRWLAGFAGTHLAPAGTESVEVRIPARAFEHYDGGWQVERGAFRILVGKHVEDDFQVLAIDVR	12.6	<0.5	<0.5
810 (protein, listed as Cutibacterium avidum) MTPAEITDLISQLTLEEKASLCSGGDSWHLQTVEKLGIPGPMVTDGPHGLRKVADGSMAGIYDSVPATCFPTAAGLASTWDPELVHDIGVALGEETRAESVSVLLGPGINMKRSPLCGRNFEYFSEDPVLAGTLATELVRGIQSQGVGTSLKHFAANNQETDRLRVNAEIDERTLREIYLPAFEMVVKQADPWTVMCSYNAINGVYSSQNRWLLTELLHEEWGYKGLVISDWGAVVNRVEGLRAGLDLEMPGDAPRNDARIVEAVRSGDLDEEILDTAVARILSLIARASAAMADPGSYDIEAHHQLARRAAAASVVLLKNDGDVLPLIDPDDVVVIGEFARTPRYQGAGSSKVNPTRVDTALDSLRQTWDDVPFAPGFTLTDHPDPQLADEAVSLSRGKTAVLFLGLPAVAESEGYDRTNTDLPTDQIDLLARVRKVASHTIVVLSNGSSVGTAEWDDQADAIVECWLGGQASGSGVIDVLTGKVNPSGHLAETITRKLSDIPAQLNFPGEFQHVTYGEGRYIGYRGLDATEREVAYPFGHGLSYTTFAYCDLDLLVRPVSDETAQDETVLTVSFTVSNTGDRAGATVPQVYLGFPDATVDRCVRELKAFLRVELDPGESRSITIDLTRRDLSYWDILLHSWTVEPGTVRVEVGISSRDLPLTGEVILDAPTVRHPLRRDSTVAEWMDADEEFAAKVRRATEQTGIDLDSDPTTAAFILAMPAYKMLQMAPIMTPEELDKMLGD	22.7	<0.5	<0.5
823 (protein, listed as Streptomyces fulvissimus) MAAASSTSNSKALRREAVDTALAALGLDDKTRLLAGQDLWSLPALPAIGLRSLVMSDGPIGVRGVRWTAADPSVALPSPTALAATWDPELARRAGRLLAQEARRKGVHVLLAPTVNLHRTPLGGRHFEAYSEDPYLTGEIGTGYVRGVQDGGVATTVKHFVANDAETDRFTVNNTVAPRPLRELYLAPFERIVRNAHPWGIMAAYNQVNGSTMTEHRYLQNAVLRGEWGFDGFIVSDWLAARTTVGAITGGLDAAMPGPRTVYGETLADAVRAGEVDEKIVDLAVRNILLLAARVGALESAPPAVPAAALPATVDGDALAREIARRSFVLVRNEVHDGADALPLAPGTTVALSGALARDARVLGGGSALVFPDHVVSPLDGLTAALPEGALTYAVGADPSDELAIAEAGFDLTAVCRDASGAVLATVPLPSGQIQWIGADLPDGVTHDTLDTVEITGTFTPRASGEHTFGTRGTGSFALTVDDRPLFDGTQDRAPGTDPLGAFFNEPVERGRLPLTEGAPVRVSLSHRPGPGTGHPLKGVAFSLVHLAPLRDPDELIAEAVEAARSADTAIVVVGTTERVESEGFDRTDLKLPGHQDALVHAVAAVNPRTVVVVNSGSPVELPWRNEVAAVLLSWFPGQEAGHALADVLRGQEEPGGRLPTTWPVALADVPVSATTPTNGELPYTEGVFIGYRAWEKAGTTPAYAFGHGLGYTTWEYEDVSATPDSVTVRVRNTGSRPGSDTVQIYLAPAPAPDAPERPARWLAGFARVTAAPGGSVEVTVPVEARAYQVWDEEAYGWKTVPGTYEVQAARSLADVRATTTVDITA	23.1	<0.5	<0.5
849 (protein, listed as Bifidobacterium merycicum) MSDNTYPSVNDLTLEEEASLTSGGDAWHLQGVEAKGIPGYMITDGPHGLRKSLASNTGETDLNDSVPATCFPPAAGLSSSWNPELIRQVGEAMGEECIQEKVAVILGPGVNIKRNPLGGRCFEYWSEDPYLAGHEAVGIVAGVQSKGVGTSLKHFAANNQETDRLRVSANISQRALREIYFPAFEHIVKTAQPWTIMCSYNRINGVHSAQNRWLLTDVLRDEWGFEGIVMSDWGADHDRVASLNAGLNLEMPPTYTDDQIVYAARDGRIQPEQLDRMAQGMIDLVNKTRAAMSVEDYRFDVDAHNEIARRAAVESMVLLKNDDAILPVSRDAKIAVIGEFARTPRYQGGGSSHITPTKMTGFLDALAERGVPVDFAPGFTLDLEPTDPALEAEAVIAARDADVVLMFLGLPEAAESEGFDRDTLDIPAKQIELLKAVAAENKNVVVILSNGSVVSVAPWANNAKGILESWLLGQAGGAALADVIFGDVSPSGKLAQSVPMDINDDPSMINWPGEEGHVDYGEGVFVGYRYYDTYGKAVDYPFGYGLSYATFEIGGVKAVKTGANTARVSATVTNTSDVDAAETVQVYVAPGKADVARPKHELKAFRKVFLKAHESAEVSFDLDESAFAYWSEKFNDWHVEAGEYGIEVGMSSRDIAGVATVALDGDGKALPLTEWSTFGEWSADPVGSKVVADVREAGERGELPKLPDNDMMRMFLGSMPINSMSTLMGESGKAISSFMLDGYAKLVG	17.8	<0.5	<0.5
894 (protein, listed as Microbacterium sp.) MSDSVAQPSVTDLTLEEKASLTSGADFWTTTAIDRAGVPSIMMTDGPHGLRKQADGNDHVGLANSVPATCFPPAVGLSATFDPELAVRVGEALGVESAIENVAVILGPGINIKRSPLCGRNFEYMSEDPIVSGVMGGALVRGIQSRGVGASLKHFAANNQETDRLRVSSDVDPRPLREIYLRGFQIAIEGAQPWTVMCSYNRINGAYASEDPWLLTSVLRDEWGFEGLVVSDWGAVNDRVAGVIAGLDLEMPSSGGATDAQLVAAVRDGSLDEAALDVVARRVLDLVQKAGRRPAIDGHLDIDAHHALAREVAGRAIVLLKNDDRVLPLAAEQKVAVIGAFAETPRFQGAGSSLINPTRLDSALDGFAEYAAEGAVTYAAGFALDGSGDADVLRAEAVAAASASEVAVVFLGIPASAESEGFDREHIDLPADQLALLDAVLVANPRTVVVLSNGGVVALPFADRVPAIIEGWLLGQAGGSATADVLYGAVNPSGRLAETIPVRLEDNPSYGNFPGEHGHVRYGEGLFVGYRWYDERGLDVTFPFGHGLSYTTFAYGDAQASVRSDGDMAVRIAVTNTGERAGRELVQVYTALQGSAVQRAPRELKAFQSVALEAGETREVELIVRRDDLAYWDVRVDRWVVEGGEYEVHVGASSRDIRSVASAEVAGDELVLPASLNSSITELLAHPVLGERMRALVAAAFGPGAESEGALQVLGSFPIGRLAAFPNVPATRDEIERMIAQA	21.3	<0.5	<0.5
803 (protein, listed as Penicillium italicum) MVQEKDISTADAVLASLTLEEKVSLLAGGSFWSTAAIPGKSIPSVKFSDGPNGARGSEMKGGPTSACFPCAVSLAATWNLDAIKEVGKALAEETKTKGANLLLGPTVCPHRHPLGGRNFESFSEDPFLSGMMASEYIVGLQGQGIGAAIKHFAANEQETFRNILDVTVSMRALREIYLKPFEIAIKQAKPWALMTAYNSVNGSHADCNSTLLQQILREEWKWDGLVLSDWGGTNSLVESLTAGLDLEMPGPPTVRKSELIMQALESNAIPESIINDRARAVLRFVATTTGFGPQKECKEYADDRPSHRELIRQVGREGIVLLKNEDDILPLKHTASAGSLTKIALLGFADEALIHGGGSAAVNAHHRITLAEGLRDAFKDRGLEIECAKGAHTLRKLPLMVDHVKNDEGKPGWSMQFLHPKDPAGVWRHIGEPSYTPTAPGNEGMTVRATTQFCVPASGRHYLSLSGLGPSSLKINGDEVYRQDGNCPDLMAFILTSYADIPVQYDFVAGQTYHIEVLSNPLEAYNGPSFMNGRAGFSVGFMLEAERDADLLAEAVTLASRSDIAIILTGNTAEWEAEGQDQVGFHLPRDGSQDRLVSAVAAANKSTIVVNCTGGPIAMPWIHEVKALLQAWFPGQEAGHSIADILVGDRFPSGRLPVTFPRAIEDTPAYRNFPGGFEEDGRARVRYEEGVFVGYRFYDHTPEQREKVLFPFGYGLSYTSFTLHDISLATLKDHHENHIEVRVSVSNVGKRRGTETIQVYVGRADHSEQHPWKTLVAFAQVSLDAGETREMSLELSRRDLAFYDESTEHWVVEASDYLVHVGTSVFEIASTERLHIPERIDYAL	13.1	<0.5	<0.5
